Reference: PMC8760513, “Mechanistic details of the actinobacterial lyase-catalyzed degradation reaction of 2-hydroxyisobutyryl-CoA” (The Journal of Biological Chemistry, 2021)

Target: the molecule itself
Assay: crystal structure; sitting drop co-crystals of 10 mg/ml protein with 1 mM 2-HIB-CoA, 5 mM ADP, 5 mM MgCl2 and 5 mM dzThDP (or ThDP for the intermediate/product state); tetramer described as a dimer of dimers

B1: 2-hydroxyacyl-CoA lyase from Actinomycetospora chiangmaiensis (WT AcHACL) (enzyme)
chain: MADRQDAERSGAGPARQSVPVASLVAEFLQEHGVDRVFGLQGGHIQPIWDQLARRGVRIVDVRDEGSAVHMAHAHTELTGQTAVAMVTAGPGVTNTVTAVANASVSRIPLLVIGGCPPIPQSNMGPLQDIPHTAILEPITRLARTLRSADQVLREFDEAWARASGDRGEPGPVYLEIPTDVLRRDVPPALQMREHLRAKPKRRPQPHPDDVAAVADLIRAAEKPAIISGRGARTTDGTDLVRLLDASGAAYLDTQESRGLVPDSHPAAVGSARSAVMRDTDLLITVGRQLDYQLGMGSPAVFPHAKVVRIADTASELIDNRRGEVEILAEPGAALAAIADALKDHTPDTSWRDELKAKHRKRAEDYRQALHSTENGADGHIHPNRIFGALDALDGDVLDLGETIMIADGGDLLSFGRLGITKARRYLDAGAFGCLGVATPFAIGAALAYPDRPVVAVTGDGAFGITATEIDTAVRHDAKIVVIVSNNRAWNIERYDQAENYGLVVGTDLADSDYAGVARAFGAHGERVTDPAELEGAIRRALANAPALVDVVTTQDAASPDSGKGLGFVPDYQALTPWNDAEVARRQEGI
notes: 2-hydroxyacyl-CoA lyase (AcHACL) of Actinomycetospora chiangmaiensis DSM 45062; residues up to 590 are named in the text; Crystallised with 2-HIB-CoA and dzThDP (7PT1) or ThDP (7PT4); also called actinobacterial 2-hydroxyacyl-CoA lyase
- stoichiometry N: 4

B2: AcHACL E493Q mutant (enzyme)
chain: MADRQDAERSGAGPARQSVPVASLVAEFLQEHGVDRVFGLQGGHIQPIWDQLARRGVRIVDVRDEGSAVHMAHAHTELTGQTAVAMVTAGPGVTNTVTAVANASVSRIPLLVIGGCPPIPQSNMGPLQDIPHTAILEPITRLARTLRSADQVLREFDEAWARASGDRGEPGPVYLEIPTDVLRRDVPPALQMREHLRAKPKRRPQPHPDDVAAVADLIRAAEKPAIISGRGARTTDGTDLVRLLDASGAAYLDTQESRGLVPDSHPAAVGSARSAVMRDTDLLITVGRQLDYQLGMGSPAVFPHAKVVRIADTASELIDNRRGEVEILAEPGAALAAIADALKDHTPDTSWRDELKAKHRKRAEDYRQALHSTENGADGHIHPNRIFGALDALDGDVLDLGETIMIADGGDLLSFGRLGITKARRYLDAGAFGCLGVATPFAIGAALAYPDRPVVAVTGDGAFGITATEIDTAVRHDAKIVVIVSNNRAWNIQRYDQAENYGLVVGTDLADSDYAGVARAFGAHGERVTDPAELEGAIRRALANAPALVDVVTTQDAASPDSGKGLGFVPDYQALTPWNDAEVARRQEGI
notes: 2-hydroxyacyl-CoA lyase (AcHACL) of Actinomycetospora chiangmaiensis DSM 45062 with E493Q, made by site-directed mutation of the WT construct in pASG-IBA43; it says that the overall structure is identical to the WT (tetramer); source: same protocol as WT)
- binding result: binds

B3: AcHACL E493A mutant (enzyme)
chain: MADRQDAERSGAGPARQSVPVASLVAEFLQEHGVDRVFGLQGGHIQPIWDQLARRGVRIVDVRDEGSAVHMAHAHTELTGQTAVAMVTAGPGVTNTVTAVANASVSRIPLLVIGGCPPIPQSNMGPLQDIPHTAILEPITRLARTLRSADQVLREFDEAWARASGDRGEPGPVYLEIPTDVLRRDVPPALQMREHLRAKPKRRPQPHPDDVAAVADLIRAAEKPAIISGRGARTTDGTDLVRLLDASGAAYLDTQESRGLVPDSHPAAVGSARSAVMRDTDLLITVGRQLDYQLGMGSPAVFPHAKVVRIADTASELIDNRRGEVEILAEPGAALAAIADALKDHTPDTSWRDELKAKHRKRAEDYRQALHSTENGADGHIHPNRIFGALDALDGDVLDLGETIMIADGGDLLSFGRLGITKARRYLDAGAFGCLGVATPFAIGAALAYPDRPVVAVTGDGAFGITATEIDTAVRHDAKIVVIVSNNRAWNIARYDQAENYGLVVGTDLADSDYAGVARAFGAHGERVTDPAELEGAIRRALANAPALVDVVTTQDAASPDSGKGLGFVPDYQALTPWNDAEVARRQEGI
notes: 2-hydroxyacyl-CoA lyase (AcHACL) of Actinomycetospora chiangmaiensis DSM 45062 with E493A, made by site-directed mutation of the WT construct in pASG-IBA43; it says that the overall structure is identical to the WT (tetramer); also called alanine mutant; source: same protocol as WT)
- binding result: binds
